Values quoted from earlier work as cited in article PMC5727865.
pKd: −log10 of the molar value.

Molecular target: gp120 gp120 (Human immunodeficiency virus 1) (UniProt O70902)
Sequence of UniProt O70902 (O70902 29-500): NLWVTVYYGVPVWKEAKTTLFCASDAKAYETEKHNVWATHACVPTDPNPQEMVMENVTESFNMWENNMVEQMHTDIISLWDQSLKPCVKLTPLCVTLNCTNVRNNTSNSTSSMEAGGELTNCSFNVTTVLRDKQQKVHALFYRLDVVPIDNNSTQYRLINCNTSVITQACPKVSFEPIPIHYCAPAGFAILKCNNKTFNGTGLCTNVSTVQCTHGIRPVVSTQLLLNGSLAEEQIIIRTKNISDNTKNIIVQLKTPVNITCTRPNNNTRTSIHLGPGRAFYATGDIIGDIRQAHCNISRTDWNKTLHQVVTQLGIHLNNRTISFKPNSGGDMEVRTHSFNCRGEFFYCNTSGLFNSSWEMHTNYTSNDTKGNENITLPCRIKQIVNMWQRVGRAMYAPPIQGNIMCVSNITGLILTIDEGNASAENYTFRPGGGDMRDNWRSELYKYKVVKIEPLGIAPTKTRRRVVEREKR

## DC-SIGN (from UniProt Q9NNX6)
  pKd: 8.77
